This note sets out measurements from US20050228169A1 (published 2005).

For this test, the target named is T1, GST-syntaxin-1a (1-266AA) (human, UniProt P08515 1-218 = GST; Q16623 1-266).
T1 construct: Expressed in E. coli DH5a and purified on glutathione-Sepharose; also called GST-syntaxin-1a fused protein; syntaxin-1a-GST
Nature of the test: GST pull-down: GST-syntaxin-1a (17 µg) on glutathione-Sepharose, 16 hours at 4° C.; Western blot with anti-penta His antibody. The method, then:
KIAA1006 polypeptide (the histidine-tagged KIAA1006 polypeptide described above) and its C-terminal truncated product (the histidine-tagged C-terminal truncation product of KIAA1006 polypeptide described above) purified with a cobalt resin were respectively mixed with glutathione-Sepharose (bed volume 10 μl) to which GST (17 μg) was bound, stirred for 6 hours at 4° C., and then centrifuged. The obtained supernatants (GST-glutathione-Sepharose unadsorbed fractions) were respectively added to glutathione-Sepharose (bed volume 10 μl) to which GST-syntaxin-1a (17 μg) was bound, and after stirring for 16 hours at 4° C., the resultants were subjected to centrifugation. The fractions adsorbed to GST-glutathione-Sepharose and the fractions adsorbed to GST-syntaxin-1a-glutathione-Sepharose were eluted with SDS-PAGE sample buffer, respectively, and the binding of syntaxin-1a to KIAA1006 polypeptide or to its C-terminal truncation product was analyzed by Western blotting using anti-penta His antibody (Qiagen).
For the SDS-PAGE, 4-12% Bis-Tris Gel (NOVEX) was used. The detection of a secondary antibody that was labeled with horseradish peroxidase was carried out using ECL Western blotting detection reagents (Amersham Pharmacia Biotech).
A general note: Immunoblotting shows a protein as a band on a membrane.

T1 sequence (P08515 1-218, tags or fused parts left off): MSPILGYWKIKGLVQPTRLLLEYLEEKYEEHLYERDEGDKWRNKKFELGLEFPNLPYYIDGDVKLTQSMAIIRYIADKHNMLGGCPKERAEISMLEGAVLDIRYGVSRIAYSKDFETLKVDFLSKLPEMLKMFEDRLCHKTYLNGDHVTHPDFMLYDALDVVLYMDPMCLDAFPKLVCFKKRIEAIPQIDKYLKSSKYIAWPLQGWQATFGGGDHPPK

B1: histidine-tagged KIAA1006 C-terminal truncated polypeptide (1-1157AA) (other)
chain: HHHHHHMKKFNFRKVLDGLTASSPGSGSSSGSNSGGGAGSGSVHPAGTAGVLREEIQETLTSEYFQICKTVRHGFPHQPTALAFDPVQKILAIGTRTGAIRILGRPGVDCYCQHESGAAVLQLQFLINEGALVSASSDDTLHLWNLRQKRPAILHSLKFNRERITYCHLPFQSKWLYVGTERGNTHIVNIESFILSGYVIMWNKAIELSTKTHPGPVVHLSDSPRDEGKLLIGYENGTVVFWDLKSKRAELRVYYDEAIHSIDWHHEGKQFMCSHSDGSLTLWNLKSPSRPFQTTIPHGKSQREGRKSESCKPILKVEYKTCKNSEPFIIFSGGLSYDKACRRPSLTIMHGKAITVLEMDHPIVEFLTLCETPYPNEFQEPYAVVVLLEKDLIVVDLTQSNFPIFENPYPMDIHESPVTCTAYFADCPPDLILVLYSIGVKHKKQGYSNKEWPISGGAWNLGAQTYPEIIITGHADGSIKFWDASAITLQMLYKLKTSKVFEKQKVGEGKQTCEIVEEDPFAIQMIYWCPESRIFCVSGVSAYVIIYKFSRHEITTEIVSLEVRLQYDVEDIITPEPETSPPFPDLSAQLPSSRSLSGSTNTVASEGVTKDSIPCLNVKTRPVRMPPGYQAELVIQLVWVDGEPPQQITSLAVSSAYGIVAFGNCNGLAVVDFIQKTVLLSMGTIDLYRSSDLYQRQPRSPRKNKQFIADNFCMRGLSNFYPDLTKRIRTSYQSLTELNDSPVPLELERCKSPTSDHVNGHCTSPTSQSCSSGKRLSSADVSKVNRWGPGRPPFRKAQSAACMEISLPVTTEENRENSYNRSRSSSISSIDKDSKEAITALYFMDSFARKNDSTISPCLFVGTSLGMVLIISLNLPLADEQRFTEPVMVLPSGTFLSLKGAVLTFSCMDRMGGLMQPPYEVWRDPNNIDENEKSWRRKVVMNSSSASQEIGDHQYTIICSEKQAKVFSLPSQTCLYVHNITETSFILQANVVVMCSSACLACFCANGHIMIMSLPSLRPMLDVNYLPLTDMRIARTFCFTNEGQALYLVSPTEIQRLTYSQEMCDNLQDMLGDLFTPIETPEAQNRGFLKGLFGGSGQTFDREELFGEASAGKASRSLAQHIPGPGSIEGMKGAAGGVMGELTRARIALDERGQRLGELEEKT
notes: Expressed in sf9 insect cells by baculovirus and purified on cobalt resin; The junction of the tag is as noted for m1; also called C-terminal truncated product; C-terminal truncation product of KIAA1006 polypeptide
Consider B1, for which the binding result is given as “no binding”.
